First the molecules themselves.
T1: Human ornithine decarboxylase (human, UniProt P11926 2-421)
T1 sequence: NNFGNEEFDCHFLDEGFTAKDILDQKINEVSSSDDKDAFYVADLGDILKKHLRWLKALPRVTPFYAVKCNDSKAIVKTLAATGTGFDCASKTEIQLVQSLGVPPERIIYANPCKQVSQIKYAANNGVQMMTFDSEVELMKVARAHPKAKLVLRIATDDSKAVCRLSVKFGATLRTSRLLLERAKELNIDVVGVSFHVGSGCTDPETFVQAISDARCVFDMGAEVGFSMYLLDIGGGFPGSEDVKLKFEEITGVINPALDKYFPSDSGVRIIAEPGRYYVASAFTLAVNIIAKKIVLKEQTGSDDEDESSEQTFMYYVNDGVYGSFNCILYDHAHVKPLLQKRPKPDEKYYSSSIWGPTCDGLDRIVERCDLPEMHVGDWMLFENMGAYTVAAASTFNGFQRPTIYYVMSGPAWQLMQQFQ

B1: AZ_(95–228) (domain or fragment)
chain: not shown
notes: also called C-terminal domain of AZ1
B2: AZ_(95–228)_D154A (domain or fragment)
chain: not shown
B3: AZ_(95–228)_K178A (domain or fragment)
chain: not shown
B4: AZ_(95–228)_K153A/E164A/E165A (domain or fragment)
chain: not shown
B5: AZ_(95–228)_E142A (domain or fragment)
chain: not shown
B6: AZ_(95–228)_H171A (domain or fragment)
chain: not shown
B7: AZ_(95–228)_E161A (domain or fragment)
chain: not shown
B8: AZ_(95–228)_E164A (domain or fragment)
chain: not shown
B9: AZ_(95–228)_E165A (domain or fragment)
chain: not shown
B10: AZ_(95–228)_K153A (domain or fragment)
chain: not shown
B11: AZ3_WT (natural protein, human, UniProt Q9UMX2 1-235, looked up)
chain: MPCKRCRPSVYSLSYIKRGKTRNYLYPIWSPYAYYLYCYKYRITLREKMLPRCYKSITYKEEEDLTLQPRSCLQCSESLVGLQEGKSTEQGNHDQLKELYSAGNLTVLATDPLLHQDPVQLDFHFRLTSQTSAHWHGLLCDRRLFLDIPYQALDQGNRESLTATLEYVEEKTNVDSVFVNFQNDRNDRGALLRAFSYMGFEVVRPDHPALPPLDNVIFMVYPLERDVGHLPSEPP
notes: antizyme 3 (AZ3), human; also called antizyme 3
B12: AZ1_D124S/E150Q/Q166K/N179D (natural protein)
chain: not shown
notes: antizyme 1 (AZ1), human; also called AZ1_4M
B13: AZ1_WT (natural protein)
chain: not shown
notes: antizyme 1 (AZ1), human; also called antizyme 1
B14: AZ1_D124S/E150Q/Q166K/H171S/N179D (natural protein)
chain: not shown
notes: antizyme 1 (AZ1), human; also called AZ1_5M; AZ1_D124S/E150Q/Q166K/N179D/H171S
B15: AZ_(95–228)_K153A/D154A/E161A/E164A/E165A (domain or fragment)
chain: not shown
B16: AZ_(95–228)_E142A/K153A/D154A/E161A/E164A/E165A/H171A/K178A (domain or fragment)
chain: not shown
notes: also called hybrid octuple mutant
B17: AZ_(95–228)_E142A/H171A/K178A (domain or fragment)
chain: not shown
notes: also called non-α1 mutant

A word on the Kd: it is the constant that tells how readily two partners part at equilibrium.

One experiment deals with T1, Human ornithine decarboxylase. The experiment is described as follows: cell-based or functional assay.
Conditions: not given
As for B1, the “IC50 of inhibition of ODC enzyme activity by AZ” value (from here on “IC50 of inhibition … by AZ”) worked out at 160 nM.
On the same count and under the same terms, then B2, with 270 nM; and B3, with 310 nM; and B4, with 4130 nM.
Still for that read-out and setting: in the case of B5 it was 310 nM; in that of B6, 270 nM; in that of B7, 250 nM.
Same read-out and setting: then B8, with 300 nM; and B9, with 300 nM; and B10, with 400 nM.

For the next experiment the target is unchanged. The experiment can be described thus: cell-based or functional assay.
Conditions: not given
The source holds these as a separate data set.
Turning to B11, the “IC50 of inhibition … by AZ” value amounted to 610 nM.

For a further experiment the target is unchanged. The experiment can be described thus: cell-based or functional assay.
Conditions: not given
This is another data set of the same source.
On to B12, for which the “IC50 of inhibition … by AZ” value came to 550 nM.
Still for that read-out and setting: then B13, with 230 nM.
With B14, the “IC50 of inhibition … by AZ” value came to 490 nM.

The target is the same in another experiment. The experiment can be described thus: AUC; sedimentation velocity, 20 °C, 30 mM Tris-HCl pH 7.4, 25 mM NaCl; ODC fixed at 0.3 mg/mL, AZ 0.02-0.19 mg/mL (AZ/ODC molar ratio 0.25 to 3); all data sets fitted to the AB hetero-association model in SEDPHAT. As to conditions: both partners purified.
B1: the Kd was 1150 ± 10 nM.
The same measure, in the same setting: then B2, with 1700 ± 20 nM; and B3, with 3030 ± 20 nM; and B4, with 6580 ± 20 nM.
Same read-out and setting: in the case of B5 it was 2200 ± 20 nM.
Regarding B6, the Kd came out at 2030 ± 20 nM.
Same read-out and setting: in the case of B15 it was 6810 ± 60 nM.
On the same count and under the same terms, then B7, with 1110 ± 10 nM; and B8, with 1680 ± 10 nM; and B9, with 1730 ± 20 nM.
The same measure, in the same setting: then B10, with 1210 ± 10 nM; and B16, with 12400 ± 700 nM.
Turning to B17, the Kd amounted to 11500 ± 600 nM.

Another experiment has the same target. The description is as above. As to conditions: both partners purified. This is another data set of the same source.
For B11, the Kd stood at 1520 ± 10 nM.
The same measure, in the same setting: in the case of B12 it was 950 ± 30 nM.
Still for that read-out and setting: in the case of B13 it was 220 ± 10 nM; in that of B14, 1780 ± 20 nM.

The values are drawn from article PMC6995573, “Critical Factors in Human Antizymes that Determine the Differential Binding, Inhibition, and Degradation of Human Ornithine Decarboxylase” (Biomolecules, 2019).
